Reference: patent US20160272683A1 (Novo Nordisk, published 2016)
One block for each binder: values may come before it. Numbered stars: 1 amine (or outer) side, 2 acyl side, 3 side chain; on linkers, the order of the positions; unused ones are H or OH. * marks the point of attachment. C20 diacid = O=C(O)CCCCCCCCCCCCCCCCCCC(=O)*; C18 diacid = O=C(O)CCCCCCCCCCCCCCCCC(=O)*; γGlu = O=C(O)[C@H](CCC(=O)[*:2])N[*:1]; AEEA = NCCOCCOCC(=O)O

Columns and labels:
[1] = biological target: T1, human amylin receptor (amylin 3(a) receptor: human calcitonin receptor with RAMP-3) (human, UniProt P30988 25-474; O60896 24-148, limits assumed); assay: SPA competition vs 125I-rat amylin, membranes with human CTR + RAMP-3 (Assay V)
T1 construct: whole, on cells; Assay V: membranes of the Amylin 3(a)/CRE-luc BHK cells on SPA beads; also called hAmylin-R
T1 sequence (looked up) 1: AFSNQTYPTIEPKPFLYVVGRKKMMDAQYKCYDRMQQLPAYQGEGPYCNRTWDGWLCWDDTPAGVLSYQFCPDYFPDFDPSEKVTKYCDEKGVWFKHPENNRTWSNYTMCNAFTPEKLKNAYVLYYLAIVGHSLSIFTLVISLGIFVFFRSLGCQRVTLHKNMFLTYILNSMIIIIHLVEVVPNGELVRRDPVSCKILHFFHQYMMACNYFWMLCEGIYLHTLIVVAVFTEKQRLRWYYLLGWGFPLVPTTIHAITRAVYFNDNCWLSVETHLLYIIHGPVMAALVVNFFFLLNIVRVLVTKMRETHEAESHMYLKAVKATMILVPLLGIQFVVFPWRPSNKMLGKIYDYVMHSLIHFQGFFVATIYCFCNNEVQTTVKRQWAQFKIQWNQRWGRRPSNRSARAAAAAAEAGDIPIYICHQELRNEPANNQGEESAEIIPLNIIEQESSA
T1 sequence (looked up) 2: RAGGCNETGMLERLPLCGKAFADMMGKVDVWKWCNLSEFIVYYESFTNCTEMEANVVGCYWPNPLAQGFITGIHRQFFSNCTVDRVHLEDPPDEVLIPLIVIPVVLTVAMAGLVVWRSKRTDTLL

[2] = biological target: T2, human calcitonin receptor (human, UniProt P30988 25-474); assay: SPA competition vs 125I-calcitonin, membranes with human CTR (Assay VII)
T2 construct: whole, on cells; Assay VII: membranes on SPA beads; also called hCT-R; hCTR
T2 sequence (looked up): T1 sequence (looked up) 1
In short: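 SPA competition on membranes from BHK tk'ts 13 cells stably expressing human calcitonin receptor plus CRE-luciferase reporter; membranes 35 ng/μL final with 0.05 mg/well beads.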

B5: [N-terminal(C20 diacid-gGlu), des1, 4Q, 9V, 15Q, 16R, 19R, 21Q, 23Y, 27Q, 30S, 31Q, 32T, 33Y]mimylin (peptide)
peptide: {C20 diacid-γGlu}-ASQLSTAVLGRLSQRLHRLQTYPRTQTGSQTY-NH2
SMILES: CC(C)C[C@H](NC(=O)[C@H](CCCNC(=N)N)NC(=O)CNC(=O)[C@H](CC(C)C)NC(=O)[C@@H](NC(=O)[C@H](C)NC(=O)[C@@H](NC(=O)[C@H](CO)NC(=O)[C@H](CC(C)C)NC(=O)[C@H](CCC(N)=O)NC(=O)[C@H](CO)NC(=O)[C@H](C)NC(=O)CC[C@H](NC(=O)CCCCCCCCCCCCCCCCCCC(=O)O)C(=O)O)[C@@H](C)O)C(C)C)C(=O)N[C@@H](CO)C(=O)N[C@@H](CCC(N)=O)C(=O)N[C@@H](CCCNC(=N)N)C(=O)N[C@@H](CC(C)C)C(=O)N[C@@H](Cc1c[nH]cn1)C(=O)N[C@@H](CCCNC(=N)N)C(=O)N[C@@H](CC(C)C)C(=O)N[C@@H](CCC(N)=O)C(=O)N[C@H](C(=O)N[C@@H](Cc1ccc(O)cc1)C(=O)N1CCC[C@H]1C(=O)N[C@@H](CCCNC(=N)N)C(=O)N[C@H](C(=O)N[C@@H](CCC(N)=O)C(=O)N[C@H](C(=O)NCC(=O)N[C@@H](CO)C(=O)N[C@@H](CCC(N)=O)C(=O)N[C@H](C(=O)N[C@@H](Cc1ccc(O)cc1)C(N)=O)[C@@H](C)O)[C@@H](C)O)[C@@H](C)O)[C@@H](C)O
notes: mimylin derivative; des1 = residue 1 deleted; also called Ex. #132; 132
- IC50 [1]: 0.39 nM
- IC50 [2]: 0.131 nM

B6: [N-terminal(C18 diacid-gGlu), des1, 30S, 31G]mimylin (peptide)
peptide: {C18 diacid-γGlu}-ASELSTAALGRLSAELHELATLPRTETGSGSP-NH2
notes: mimylin derivative; des1 = residue 1 deleted; also called Ex. #46; 46
- IC50 [1]: 0.516 nM
- IC50 [2]: 0.084 nM

Now those with a lower IC50 [1], led by results:

- IC50 [1]: 0.371 nM
- IC50 [2]: 0.12 nM
B4: [N-terminal(C18 diacid-gGlu-2xOEG), des1, 4G, 9V, 15Q, 21Q, 23Y, 30S, 31G, 32T, 33Y]mimylin (peptide)
peptide: {C18 diacid-γGlu-AEEA-AEEA}-ASGLSTAVLGRLSQELHELQTYPRTETGSGTY-NH2
SMILES: CC(C)C[C@H](NC(=O)CNC(=O)[C@H](CO)NC(=O)[C@H](C)NC(=O)COCCOCCNC(=O)COCCOCCNC(=O)CC[C@H](NC(=O)CCCCCCCCCCCCCCCCC(=O)O)C(=O)O)C(=O)N[C@@H](CO)C(=O)N[C@H](C(=O)N[C@@H](C)C(=O)N[C@H](C(=O)N[C@@H](CC(C)C)C(=O)NCC(=O)N[C@@H](CCCNC(=N)N)C(=O)N[C@@H](CC(C)C)C(=O)N[C@@H](CO)C(=O)N[C@@H](CCC(N)=O)C(=O)N[C@@H](CCC(=O)O)C(=O)N[C@@H](CC(C)C)C(=O)N[C@@H](Cc1c[nH]cn1)C(=O)N[C@@H](CCC(=O)O)C(=O)N[C@@H](CC(C)C)C(=O)N[C@@H](CCC(N)=O)C(=O)N[C@H](C(=O)N[C@@H](Cc1ccc(O)cc1)C(=O)N1CCC[C@H]1C(=O)N[C@@H](CCCNC(=N)N)C(=O)N[C@H](C(=O)N[C@@H](CCC(=O)O)C(=O)N[C@H](C(=O)NCC(=O)N[C@@H](CO)C(=O)NCC(=O)N[C@H](C(=O)N[C@@H](Cc1ccc(O)cc1)C(N)=O)[C@@H](C)O)[C@@H](C)O)[C@@H](C)O)[C@@H](C)O)C(C)C)[C@@H](C)O
notes: mimylin derivative; des1 = residue 1 deleted; also called Ex. #121; 121

- IC50 [1]: 0.297 nM
- IC50 [2]: 0.085 nM
B1: [N-terminal(C20 diacid-gGlu), des1, 9V, 15Q, 21Q, 23Y, 30S, 31G, 32T, 33Y]mimylin (peptide)
peptide: {C20 diacid-γGlu}-ASELSTAVLGRLSQELHELQTYPRTETGSGTY-NH2
SMILES: CC(C)C[C@H](NC(=O)[C@H](CCCNC(=N)N)NC(=O)CNC(=O)[C@H](CC(C)C)NC(=O)[C@@H](NC(=O)[C@H](C)NC(=O)[C@@H](NC(=O)[C@H](CO)NC(=O)[C@H](CC(C)C)NC(=O)[C@H](CCC(=O)O)NC(=O)[C@H](CO)NC(=O)[C@H](C)NC(=O)CC[C@H](NC(=O)CCCCCCCCCCCCCCCCCCC(=O)O)C(=O)O)[C@@H](C)O)C(C)C)C(=O)N[C@@H](CO)C(=O)N[C@@H](CCC(N)=O)C(=O)N[C@@H](CCC(=O)O)C(=O)N[C@@H](CC(C)C)C(=O)N[C@@H](Cc1c[nH]cn1)C(=O)N[C@@H](CCC(=O)O)C(=O)N[C@@H](CC(C)C)C(=O)N[C@@H](CCC(N)=O)C(=O)N[C@H](C(=O)N[C@@H](Cc1ccc(O)cc1)C(=O)N1CCC[C@H]1C(=O)N[C@@H](CCCNC(=N)N)C(=O)N[C@H](C(=O)N[C@@H](CCC(=O)O)C(=O)N[C@H](C(=O)NCC(=O)N[C@@H](CO)C(=O)NCC(=O)N[C@H](C(=O)N[C@@H](Cc1ccc(O)cc1)C(N)=O)[C@@H](C)O)[C@@H](C)O)[C@@H](C)O)[C@@H](C)O
notes: mimylin derivative; des1 = residue 1 deleted

- IC50 [1]: 0.159 nM
- IC50 [2]: 0.05 nM
B3: [N-terminal(C20 diacid-gGlu-2xOEG), des1, 30S, 31G]mimylin (peptide)
peptide: {C20 diacid-γGlu-AEEA-AEEA}-ASELSTAALGRLSAELHELATLPRTETGSGSP-NH2
notes: mimylin derivative; des1 = residue 1 deleted; also called Ex. #42; 42

- IC50 [1]: 0.077 nM
- IC50 [2]: 0.034 nM
B2: [N-terminal(C18 diacid), des1, 30S, 31G]mimylin (peptide)
peptide: {C18 diacid}-ASELSTAALGRLSAELHELATLPRTETGSGSP-NH2
notes: mimylin derivative; des1 = residue 1 deleted; also called Ex. #48; 48
